What was measured:
[1] = biological target: Muc1 as expressed by DS6 negative & CM1 positive cell lines (KLE, OVCAR3, SKOV3), without the CA6 glycotope (human) (UniProt P15941); assay: flow cytometry on OVCAR3 cells (DS6 negative)
[2] = biological target: Muc1 as expressed by DS6 negative & CM1 positive cell lines (KLE, OVCAR3, SKOV3), without the CA6 glycotope (human) (UniProt P15941); assay: flow cytometry on KLE cells (DS6 negative)
[3] = biological target: Muc1 as expressed by DS6 negative & CM1 positive cell lines (KLE, OVCAR3, SKOV3), without the CA6 glycotope (human) (UniProt P15941); assay: flow cytometry on SKOV3 cells (DS6 negative)
[4] = biological target: Muc1 as expressed by DS6 negative & CM1 positive cell lines (KLE, OVCAR3, SKOV3), without the CA6 glycotope (human) (UniProt P15941); assay: flow cytometry on KLE cells
[5] = biological target: Muc1 as expressed by DS6 negative & CM1 positive cell lines (KLE, OVCAR3, SKOV3), without the CA6 glycotope (human) (UniProt P15941); assay: flow cytometry on SKOV3 cells
[6] = biological target: Muc1 as expressed by DS6 negative & CM1 positive cell lines (KLE, OVCAR3, SKOV3), without the CA6 glycotope (human) (UniProt P15941); assay: flow cytometry on OVCAR3 cells

| MMF (maximum mean relative fluorescence) (relative fluorescence) [1] | MMF (maximum mean relative fluorescence) (relative fluorescence) [2] | MMF (maximum mean relative fluorescence) (relative fluorescence) [3] | Substance | MMF (maximum mean relative fluorescence) (relative fluorescence) [4] | MMF (maximum mean relative fluorescence) (relative fluorescence) [5] | MMF (maximum mean relative fluorescence) (relative fluorescence) [6] |
| --- | --- | --- | --- | --- | --- | --- |
| 21.2 | 27.5 | 17.5 | murine anti-CA6 monoclonal antibody DS6 |  |  |  |
|  |  |  | CM1 antibody (Muc1 VNTR antibody) | 562 | 49.4 | 192 |

Reference: patent US20110064733A1
